Experimental data published in patent publication US20220204611A1 (Amgen, published 2022).

T1: human TREM2 (human, UniProt Q9NZC2 19-174, limits assumed)
T1 sequence: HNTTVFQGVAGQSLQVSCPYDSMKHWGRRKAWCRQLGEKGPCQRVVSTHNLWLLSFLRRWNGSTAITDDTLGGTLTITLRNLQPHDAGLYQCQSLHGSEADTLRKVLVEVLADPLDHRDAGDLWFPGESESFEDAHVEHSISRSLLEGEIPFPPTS


Key:
human TREM2 [1] = molecular target: T1, human TREM2; assay: yeast-displayed Fab FACS, 2nd screen 2 nM
human TREM2 [2] = molecular target: T1, human TREM2; assay: yeast-displayed Fab FACS, 2nd screen 10 nM
human TREM2 [3] = molecular target: T1, human TREM2; assay: yeast-displayed Fab FACS, 1st screen 10 nM
human TREM2 [4] = molecular target: T1, human TREM2; assay: yeast-displayed Fab FACS, 2nd screen 100 nM
human TREM2 [5] = molecular target: T1, human TREM2; assay: yeast-displayed Fab FACS, 1st screen 110 nM

binding signal fold over 6E7 parental (human TREM2 [1]) [fold] | binding signal fold over 6E7 parental (human TREM2 [2]) [fold] | binding signal fold over 6E7 parental (human TREM2 [3]) [fold] | binding signal fold over 6E7 parental (human TREM2 [4]) [fold] | binding signal fold over 6E7 parental (human TREM2 [5]) [fold] | Binder
1.29 | 2.75 | 2.05 |  |  | V65 (Fab, V domains shown) VH: EVQLVQSGAEVKKPGESLKISCKGSGYSFTSYWIAWVRQMPGKGLEWMGIIYPGDSDTRYSPSFQGQVTISADKSISTAYLQWSSLKASDTAMYFCARSRTFYYDSSDYFDYWGQGTLVTVSS VL: DIQMTQSPSSVSASVGDRVTITCRASQGISSWLAWYQQKPGKAPKLLIYAASSLQNGVPSRFSGSGSGTDFTLTISSLQPEDFATYFCQQADSFPRTFGQGTKLEIK
1.95 | 2.24 | 1.97 |  |  | V3 (Fab, V domains shown) VH: EVQLVQSGAEVKKPGESLKISCKGSGYSFASYWIAWVRQMPGKGLEWMGIIYPGDSDTRYSPSFQDQVTISADKSISTAYLQWSSLKASDTAMYFCARGRTFYYDSSDYFDYWGQGTLVTVSS VL: DIQMTQSPSSVSASVGDRVTITCRASQGISSWLAWYQQKPGKAPKLLIYAASSRQNGVPSRFSGSGSGTDFTLTISSLQPEDFATYFCQQADRFPRTFGQGTKLEIK
 |  |  | 0.65 | 0.22 | V92 (Fab, V domains shown) VH: EVQLVQSGAEVKKPGESLKISCKGSGYSFTSYWIAWVRQMPGKGLEWMGIIYPGDSDTRYSPSFQGQVTISADKSISTAYLQWSSLKASDTAMYFCARQRTFHYDSSDYFDYWGQGTLVTVSS VL: DIQMTQSPSSVSASVGDRVTITCRASQGISSWLAWYQQKPGKAPKLLIYAASSLQNGVPSRFSGSGSGTDFTLTISSLQPEDFATYFCQQADSFPRTFGQGTKLEIK
 |  |  | 0.79 | 0.3 | V82 (Fab, V domains shown) VH: EVQLVQSGAEVKKPGESLKISCKGSGYSFTSYWIAWVRQMPGKGLEWMGIIYPGDSDTRYSPSFQGQVTISADKSISTAYLQWSSLKASDTAMYFCARQRTFYYDSSDYFDYWGQGTLVTVSS VL: DIQMTQSPSSVSASVGDRVTITCRASQGISSWLAWYQQKPGKAPKLLIYAGSSLQNGVPSRFSGSGSGTDFTLTISSLQPEDFATYFCQQADSFPRTFGQGTKLEIK
2.23 | 2.9 | 2.55 |  |  | V2 (Fab, V domains shown) VH: EVQLVQSGAEVKKPGESLKISCKGSGSSFTSYWIAWVRQMPGKGLEWMGIIYPGDGDTRYSPSFQGQVTISADKSISTAYLQWSSLKASDTAMYFCARSRTFYYDSSDYFDYWGQGTLVTVSS VL: DIQMTQSPSSVSASVGDRVTITCRASQGISSWLAWYQQKPGKAPKLLIYAASSRQNGVPSRFSGSGSGTDFTLTISSLQPEDFATYFCQQADRFPRTFGQGTKLEIK
1.29 | 1.92 | 1.68 |  |  | V1 (Fab, V domains shown) VH: EVQLVQSGAEVKKPGESLKISCKGSGYSFTSSWIAWVRQMPGKGLEWMGIIYPGDSDTRYSPSFQGQVTISADKSISTAYLQWSSLKASDTAMYFCARSRTFYYDSSDYFDYWGQGTLVTVSS VL: DIQMTQSPSSVSASVGDRVTITCRASQGISSWLAWYQQKPGKAPKLLIYAASSLTNGVPSRFSGSGSGTDFTLTISSLQPEDFATYFCQQADSYPRTFGQGTKLEIK
 |  |  | 0.87 | 0.31 | V94 (Fab, V domains shown) VH: EVQLVQSGAEVKKPGESLKISCKGSGYSFTSYWIAWVRQMPGKGLEWMGIIYPGDSDTRYSPSFQGQVTISADKSISTAYLQWSSLKASDTAMYFCARQRTFYYDSSDYFDYWGQGTLVTVSS VL: DIQMTQSPSSVSASVGDRVTITCRASQGISSWLAWYQQKPGKAPKLLIYAAASLQNGVPSRFSGSGSGTDFTLTISSLQPEDFATYFCQQADSFPRTFGQGTKLEIK
 |  |  | 0.23 | 0.17 | V81 (Fab, V domains shown) VH: EVQLVQSGAEVKKPGESLKISCKGSGYSFTSYWIAWVRQMPGKGLEWMGIIYPGDSDTRYSPSFQGQVTISADKSISTAYLQWSSLKASDTAMYFCARQRTFYYDSSDYFDYWGQGTLVTVSS VL: DIQMTQSPSSVSASVGDRVTITCRASQGISSLLAWYQQKPGKAPKLLIYAASSLQNGVPSRFSGSGSGTDFTLTISSLQPEDFATYFCQQADSFPRTFGQGTKLEIK
 |  |  | 0.29 | 0.2 | V83 (Fab, V domains shown) VH: EVQLVQSGAEVKKPGESLKISCKGSGYSFTSYWIAWVRQMPGKGLEWMGIIYPGDSDTRYSPSFQGQVTISADKSISTAYLQWSSLKASDTAMYFCARQRTFYYDSSDYFDYWGQGTLVTVSS VL: DIQMTQSPSSVSASVGDRVTITCRASQGISSWLAWYQQKPGKAPKLLIYAASSLQNGVPSRFSGSGSGTDFTLTISSLQPEDFATYFCQQAVSFPRTFGQGTKLEIK
 |  |  | 1.05 | 0.35 | V93 (Fab, V domains shown) VH: EVQLVQSGAEVKKPGESLKISCKGSGYSFTSYWIAWVRQMPGKGLEWMGIIYPGDSDTRYSPSFQGQVTISADKSISTAYLQWSSLKASDTAMYFCARQRTFYYDSSDYFDYWGQGTLVTVSS VL: DIQMTQSPSSVSASVGDRVTITCRASQGISGWLAWYQQKPGKAPKLLIYAASSLQNGVPSRFSGSGSGTDFTLTISSLQPEDFATYFCQQADSFPRTFGQGTKLEIK
 |  |  | 0.52 | 0.7 | V79 (Fab, V domains shown) VH: EVQLVQSGAEVKKPGESLKISCKGSGYSFTSYWIAWVRQMPGKGLEWMGIIYPGDSDTNYSPSFQGQVTISADKSISTAYLQWSSLKASDTAMYFCARQRTFYYDSSDYFDYWGQGTLVTVSS VL: DIQMTQSPSSVSASVGDRVTITCRASQGISSWLAWYQQKPGKAPKLLIYAASSLQNGVPSRFSGSGSGTDFTLTISSLQPEDFATYFCQQADSFPRTFGQGTKLEIK
 |  |  | 0.36 | 0.33 | V90 (Fab, V domains shown) VH: EVQLVQSGAEVKKPGESLKISCKGSGYSFTSEWIAWVRQMPGKGLEWMGIIYPGDSDTRYSPSFQGQVTISADKSISTAYLQWSSLKASDTAMYFCARQRTFYYDSSDYFDYWGQGTLVTVSS VL: DIQMTQSPSSVSASVGDRVTITCRASQGISRWLAWYQQKPGKAPKLLIYAASSLQNGVPSRFSGSGSGTDFTLTISSLQPEDFATYFCQQADSFPRTFGQGTKLEIK
 |  |  | 0.61 | 0.25 | V91 (Fab, V domains shown) VH: EVQLVQSGAEVKKPGESLKISCKGSGYSFTSYWIAWVRQMPGKGLEWMGIIYPDDSDTRYSPSFQGQVTISADKSISTAYLQWSSLKASDTAMYFCARQRTFYYDSSDYFDYWGQGTLVTVSS VL: DIQMTQSPSSVSASVGDRVTITCRASQGISSWLAWYQQKPGKAPKLLIYAASSLQNGVPSRFSGSGSGTDFTLTISSLQPEDFATYFCQQADSFPRTFGQGTKLEIK
 |  |  | 0.5 | 0.59 | V80 (Fab, V domains shown) VH: EVQLVQSGAEVKKPGESLKISCKGSGYSFTSYWIAWVRQMPGKGLEWMGIIYPGDSDTRYSPSFQGQVTISADKSISTAYLQWSSLKASDTAMYFCARQRNFYYDSSDYFDYWGQGTLVTVSS VL: DIQMTQSPSSVSASVGDRVTITCRASQGISSWLAWYQQKPGKAPKLLIYAASSLQNGVPSRFSGSGSGTDFTLTISSLQPEDFATYFCQQADSFPRTFGQGTKLEIK
